B1: E. coli MtlR fused with His6-tag (ecHisMtlR), wild type [E. coli] / E. coli histidine phosphocarrier protein HPr (dephosphorylated, untagged) [E. coli] (parent complex)
chain 1: MVDQAQDTLRPNNRLSDMQATMEQTQAFENRVLERLNAGKTVRSFLITAVELLTEAVNLLVLQVFRKDDYAVKYAVEPLLDGDGPLGDLSVRLKLIYGLGVINRQEYEDAELLMALREELNHDGNEYAFTDDEILGPFGELHCVAALPPPPQFEPADSSLYAMQIQRYQQAVRSTMVLSLTELISKISLKKAFQK
chain 2: not shown

Variants of B1 are the subject of one assay. The experiment in a line: His-tag pull-down (Talon metal affinity resin), SDS-PAGE band densitometry; 200 μg His-MtlR, 200 μg HPr, 20 μl EI-overproducing cell lysate, 2 mM MgCl2, 50 μl Talon resin; no PEP.
As for chain 1 E140S, the percent of parent was 68%.

As to chain 1 E108S, chain 1 E140S, the percent of parent was determined as 35%.

With chain 1 E108S, the percent of parent was 65%.

The variants in a further assay derive from B1. Kind of assay: His-tag pull-down (Talon metal affinity chromatography), SDS-PAGE band densitometry; 200 μg His-MtlR, 200 μg HPr; 20 mM Tris-HCl (pH 7.5), 50 mM NaCl, 2 mM β-mercaptoethanol, 5% glycerol; wash 10 mM imidazole, elution 150 mM imidazole.
For chain 1 E140S, the percent of parent worked out at 67%.

On to chain 1 E108S, for which the percent of parent is 76%.

Regarding chain 1 L112A, the percent of parent was 47%.

Consider chain 1 L112W, for which the percent of parent stood at 95%.

As for chain 1 A115W, the percent of parent stood at 45%.

Source of the values: paper PMC6763467 (2019).
